In the supplement of paper PMC9170038:

Test system: MS2 coat protein
Test: apparent KD of MS2 coat protein; designed switch direction (-1 OFF switch, 1 ON switch): 1; higher = weaker reporter binding
Procedure, shortened: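 For each design, the apparent KD is the median over clusters of curves fitted to normalised cluster fluorescence. Clusters held RNA switches with common flanks, transcribed on Illumina chips by stalled E. coli RNA polymerase. These were titrated with SNAP-549-labelled MS2 coat protein, doubling from 0.7 or 1.5 nM to 3 µM, without input, with 200 uM small-molecule ligand, or with an oligonucleotide input.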

[1] = input ligand: microRNA oligo, concentration not stated
[2] = Eterna round: R95, input ligand: FMN 200 uM
[3] = Eterna round: R95, input ligand: microRNA oligo, concentration not stated
[4] = Eterna round: R95, input ligand: none

Row | Sequence | apparent KD of MS2 coat protein [1] | apparent KD of MS2 coat protein (input ligand: FMN 200 uM) | apparent KD of MS2 coat protein (input ligand: none) | apparent KD of MS2 coat protein [2] | apparent KD of MS2 coat protein [3] | apparent KD of MS2 coat protein [4]
1 | GUGGUCAGACAUGAGGAUCACCCAUGUGGAAUAAAUAACAGACAGGAUAUUAAAUAUAGGAUAUAUAAGAAGGGUCGAUUGGUG (Eterna round: R96, puzzle: Same State NG 3) | 78.5 nM |  |  |  |  | 
2 | UUGAUUAGAAAUUAACAUGAGGAUCACCCAUGUAUUGGAUCAGAGGAUAUGCAUGUUUGAUUGUAGCAGAAGGCUGAUUGUGGA [JR_SSNG3_Sub028] (Eterna round: R96, puzzle: Same State NG 3) | 29.5 nM | 43.2 nM | 46.5 nM |  |  | 
3 | GGAGCCGGCACUGAGGAUAUUCAUAUUAAAACAUGAGGAUCACCCAUGUAGGCCAGAAGGCCUUGGGAGAAGGCAGGCCGGCCCG [Bibimoar - 1] (puzzle: Same State 2) |  |  |  | 18.8 nM | 177 nM | 276 nM
4 | GAGAAGAGGGACAAGGAUAUGUCAGGAGAGACAUGAGGAUCACCCAUGUAGAGGAAGAGAGAGAGACAGAAGGUGUCGAGAGCGA [JR_SS2_Sub015] (puzzle: Same State 2) |  |  |  | 118 nM | 66 nM | 130 nM
5 | GGUCCAGCCUGAGCUGGACAAAAGCAUGUACAUGAGGAUCACCCAUGUCAUGUACAAGCUUUUUGCUCGUCUUAAAU [Mat - hsa-mir-208a - 84] (puzzle: Sensor for hsa-mir-208a) |  |  |  | 495 nM | 16.1 nM | 800 nM
6 | AUUUAACAAGCUUUUUGCUCGUCUUAUAAACAUGAGGAUCACCCAUGUAAUAGCGUGAGAGUAAAUAAUUUAAUAAU [JMF 98] (puzzle: Sensor for hsa-mir-208a) |  |  |  | 12.9 nM | 53.2 nM | 
7 | AGUGAACAUGAGGAUCACCCAUGUGAGAGAAGUGUAGGAUAUGUGAGGAGCAGAGGAGGGACAGAAGGACAUGGAG [JR_SS!_Sub074] (puzzle: Same State 1) |  |  |  | 32.1 nM | 38 nM | 51.8 nM
8 | ACAGAGUGAAGACAGGAUAUUCGCGAUGGCACAUGAGGAUCACCCAUGUUUUGAGCACAUAAACAGAAGAAGGGUUAAAACUCAG [Zadier] (puzzle: Same State 2) |  |  |  | 15 nM | 119 nM | 362 nM
9 | UUUAUACAUGAGGAUCACCCAUGUCAACGUAGUCGAGGAUAUGGGCAGCCGUGAGGCGUACUAGAAGGCGAAGAGG [JL-ss1-3.08 ViennaUCT mod] (puzzle: Same State 1) |  |  |  | 49.7 nM | 38.8 nM | 118 nM
10 | UGGAAGAAUUAAGGAUAUCGAGUACAUAUGUUUAACAUGAGGAUCACCCAUGUGGGUUGCGGUAUCGAGAAGGUAAAUUACAAG [Mat - same State NG 2 - JL mod - D61] (Eterna round: R96, puzzle: Same State NG 2) | 40.5 nM | 44.6 nM | 44 nM |  |  | 
11 | UAGAAACAUGAGGAUCACCCAUGUGGGUUAAACACAGGAUAUCACACCAAACGAAAGGCGUGAGAAGGGUGACCGU [Xeonreais] (puzzle: Same State 1) |  |  |  | 62 nM | 41.2 nM | 39.1 nM
12 | AGAUCAUGACGAGGAUAUGGAACAUGAGGAUCACCCAUGUAUGUUCCAUAACGCGAAUGACGAAUCCAGAAGGCGUCGUGAUCA [Mat - Same State NG 2 - JL mod - D26] (Eterna round: R96, puzzle: Same State NG 2) | 92.1 nM | 18.1 nM | 116 nM |  |  | 
13 | AUAGUUUCCGAAGGAUAUGAUGAGGAUCACCCAUCAGAAGGUUGGCUAUUGGGCUGACAUGAGGAUCACCCAUGUUCCGGUGUU (Eterna round: R96, puzzle: Same State NG 1) | 31.9 nM | 33.7 nM | 43.3 nM |  |  | 
